{"source": "paper PMC2758918", "about": "(Nature structural & molecular biology, 2009)", "proteins": {"B1": {"name": "zinc transporter YiiP from Escherichia coli (natural protein, UniProt P69380 1-300, looked up)", "chain": "MNQSYGRLVSRAAIAATAMASLLLLIKIFAWWYTGSVSILAALVDSLVDIGASLTNLLVVRYSLQPADDNHSFGHGKAESLAALAQSMFISGSALFLFLTGIQHLISPTPMTDPGVGVIVTIVALICTIILVSFQRWVVRRTQSQAVRADMLHYQSDVMMNGAILLALGLSWYGWHRADALFALGIGIYILYSALRMGYEAVQSLLDRALPDEERQEIIDIVTSWPGVSGAHDLRTRQSGPTRFIQIHLEMEDSLPLVQAHMVADQVEQAILRRFPGSDVIIHQDPCSVVPREGKRSMLS", "modifications": "ethyl mercury phosphate or thiomerosal bound to C127 (crystal derivatives)"}, "B2": {"name": "YiiP^C127V doubly labeled with Alexa-488 and Alexa-647 (natural protein, Escherichia coli, UniProt P69380 1-300, looked up)", "chain": "B1 chain with C127V", "modifications": "Alexa donor-acceptor pair (Alexa-488, Alexa-647) on cysteine (Cys287)"}}, "key": {"crystal structure": {"molecular_target": "the molecule itself", "experiment": "crystal structure"}, "FRET or BRET": {"molecular_target": "the molecule itself", "experiment": "FRET or BRET"}}, "note": "Changes are numbered by the printed parent chain. Names may count otherwise."}
{"protein": "B1", "values": [{"measurement": "stoichiometry N", "setting": "crystal structure", "value": 2}]}
{"protein": "B2", "values": [{"measurement": "binding result", "setting": "FRET or BRET", "value": "binds"}]}
